In assay [1] the target is T1, CCR5 (UniProt P51681 1-352, limits assumed).
T1 construct: whole, on cells; The cell line is not described
The experiment in a line: binding to cells expressing CCR5, fluorescence counts (FL1 Counts) against Log M.

The target of assay [2] is T2, CCR8 (UniProt P51685 1-355, limits assumed).
T2 construct: whole, on cells; The cell line is not described
The experiment in a line: binding to cells expressing CCR8, fluorescence counts (FL1 Counts) against Log M.

The next assay concerns the target T3, CXCR1 (UniProt P25024 1-350, limits assumed).
T3 construct: whole, on cells; The cell line is not described
T3 sequence (looked up): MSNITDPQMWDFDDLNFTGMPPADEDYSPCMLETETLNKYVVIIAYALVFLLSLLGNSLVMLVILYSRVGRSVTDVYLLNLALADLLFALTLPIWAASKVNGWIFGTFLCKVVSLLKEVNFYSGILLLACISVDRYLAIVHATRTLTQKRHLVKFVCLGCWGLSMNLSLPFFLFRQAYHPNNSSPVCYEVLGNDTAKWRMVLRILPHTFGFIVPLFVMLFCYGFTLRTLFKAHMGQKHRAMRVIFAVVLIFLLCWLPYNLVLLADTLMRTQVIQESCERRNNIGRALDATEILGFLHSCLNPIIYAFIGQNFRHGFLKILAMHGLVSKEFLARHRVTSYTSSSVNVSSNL
Put plainly: binding to cells expressing CXCR1, fluorescence counts (FL1 Counts) against Log M.

In another assay the target is T4, CXCR2 (UniProt P25025 1-360, limits assumed).
T4 construct: whole, on cells; The cell line is not described
T4 sequence (looked up): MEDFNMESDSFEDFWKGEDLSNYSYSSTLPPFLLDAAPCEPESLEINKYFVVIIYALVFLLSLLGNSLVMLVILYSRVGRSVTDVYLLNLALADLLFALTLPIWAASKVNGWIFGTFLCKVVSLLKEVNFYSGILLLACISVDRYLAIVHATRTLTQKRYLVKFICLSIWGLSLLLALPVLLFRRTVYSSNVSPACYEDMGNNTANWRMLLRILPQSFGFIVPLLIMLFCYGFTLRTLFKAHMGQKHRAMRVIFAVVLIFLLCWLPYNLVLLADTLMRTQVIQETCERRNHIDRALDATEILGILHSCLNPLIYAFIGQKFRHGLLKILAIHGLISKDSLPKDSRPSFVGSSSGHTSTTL
Put plainly: binding to cells expressing CXCR2, fluorescence counts (FL1 Counts) against Log M.

Assay [3] addresses T5, cynomolgus CCR9 (cynomolgus, UniProt Q0H741 1-369).
T5 construct: Overexpressed on HEK cells, or endogenous on cynomolgus PBMC; also called cynomolgus CCR9A; Cyno HEK
T5 sequence: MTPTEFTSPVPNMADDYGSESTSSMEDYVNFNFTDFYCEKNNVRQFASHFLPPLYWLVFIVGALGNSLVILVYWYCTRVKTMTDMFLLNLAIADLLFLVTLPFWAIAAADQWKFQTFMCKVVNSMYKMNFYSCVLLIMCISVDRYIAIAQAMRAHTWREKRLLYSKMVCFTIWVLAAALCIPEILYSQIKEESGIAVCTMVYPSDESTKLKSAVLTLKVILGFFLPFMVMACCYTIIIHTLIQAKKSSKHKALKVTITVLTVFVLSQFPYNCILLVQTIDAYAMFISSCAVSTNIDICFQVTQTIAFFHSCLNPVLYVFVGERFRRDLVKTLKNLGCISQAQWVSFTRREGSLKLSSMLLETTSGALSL
The experiment in a line: binding to HEK cells expressing cynomolgus CCR9, fluorescence counts (FL1 Counts) against Log M.

The target in assay [4] is T6, rat CCR9 (rat, UniProt Q8CH33 1-369).
T6 construct: Overexpressed on HEK cells; also called Rat HEK
T6 sequence: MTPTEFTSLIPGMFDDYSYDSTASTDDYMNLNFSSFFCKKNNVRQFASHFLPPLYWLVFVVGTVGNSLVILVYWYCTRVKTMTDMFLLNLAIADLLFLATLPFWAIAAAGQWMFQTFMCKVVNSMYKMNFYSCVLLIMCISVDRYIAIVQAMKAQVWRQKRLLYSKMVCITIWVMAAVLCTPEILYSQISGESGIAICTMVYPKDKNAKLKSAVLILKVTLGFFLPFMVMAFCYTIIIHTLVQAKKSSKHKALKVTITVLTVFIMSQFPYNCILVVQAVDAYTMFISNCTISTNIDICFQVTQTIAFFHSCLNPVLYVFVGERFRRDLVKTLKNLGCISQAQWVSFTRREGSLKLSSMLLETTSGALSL
The experiment in a line: binding to HEK cells overexpressing rat CCR9, MFI against [Ab] ug/ml. The method, then:
(§1) The antibody AB1020243 (hybridoma mIgG) was also tested for binding to different forms of CCR9. Briefly, test antibody was diluted to a concentration of 60 μg/mL in assay buffer containing Hanks Balanced Salt solution (Sigma HB264) plus 0.1% Bovine Serum Albumin (Sigma A9576). Antibody was titrated in duplicate using single fold titrations over 24 points on a 384 black clear bottomed, non-binding microplate (Corning® NBS™ 3655) so that the final volume of test antibody was 10 μL per well. […]
(§2) Transfected HEK CCR9 overexpressing cell lines or un-transfected parental control cells were suspended in assay buffer at a concentration of 1×10⁶ cells per ml, and 10 μL of cells were dispensed to the assay plate containing test antibody and secondary antibody using a Multidrop dispenser (Thermo Scientific). Assay plates were incubated overnight at 4° C. and were read on a mirrorball® (laser scanning fluorescence cytometer; TTP-Labtech) using excitation at 488 nm and emission using the FL4channel (667-685 nm). Data was plotted in GraphPad Prism version 8.0.0 for Windows (GraphPad Software, San Diego, California USA) and expressed as Log (mg/mL antibody) v's Fluorescence (FL4) counts.

Assay [5] deals with T7, mouse CCR9 (mouse, UniProt Q9WUT7 1-369).
T7 construct: whole, on cells; Overexpressed on HEK cells; also called mCCR9; Mouse HEK
T7 sequence (looked up): T6 sequence with T2M, F6L, Y17F, V60I, V64L, I189V, I197T, C272S, T283A
The experiment in a line: binding to HEK cells overexpressing mouse CCR9, MFI against [Ab] ug/ml. The method, then:
as §1, §2

For assay [6], the target named is T8, human CCR9A (human, UniProt P51686 1-369).
T8 construct: Overexpressed on HEK cells; also called Hu A HEK; hCCR9 isoform A
T8 sequence: T5 sequence with E5D, V10I, V197I, M228V, S288N
Put plainly: binding to HEK cells overexpressing human CCR9A, MFI against [Ab] ug/ml; Parental HEK stays at about 0. As for the experimental part: as §1, §2

Assay [7] addresses T9, human CCR9B (human, UniProt P51686 13-369).
T9 construct: Overexpressed on HEK cells; also called Hu B HEK; hCCR9 isoform B
T9 sequence: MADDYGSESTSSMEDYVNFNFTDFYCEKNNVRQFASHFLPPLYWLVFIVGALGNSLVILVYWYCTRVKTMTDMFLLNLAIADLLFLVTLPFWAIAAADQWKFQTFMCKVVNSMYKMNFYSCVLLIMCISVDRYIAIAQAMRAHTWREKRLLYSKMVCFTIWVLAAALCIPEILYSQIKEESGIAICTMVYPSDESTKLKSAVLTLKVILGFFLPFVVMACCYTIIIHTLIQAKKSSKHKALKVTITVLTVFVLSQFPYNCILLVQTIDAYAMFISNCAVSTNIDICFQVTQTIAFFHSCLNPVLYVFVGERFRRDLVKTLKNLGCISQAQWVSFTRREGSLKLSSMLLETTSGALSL
The experiment in a line: binding to HEK cells overexpressing human CCR9B, MFI against [Ab] ug/ml; Parental HEK stays at about 0. As for the experimental part: as §1, §2

Assay [8] addresses T5, cynomolgus CCR9. The experiment in a line: cell-based or functional assay.
Assay [9] has as its target T7, mouse CCR9. The experiment in a line: cell binding by the methods of Example 4.
For assay [10], the target named is T6, rat CCR9. Put plainly: cell binding by the methods of Example 4.
Assay [11] addresses T1, CCR5. Put plainly: binding to cells expressing CCR5, fluorescence counts (FL1 Counts) against Log M. This is another data set of the same source.
In assay [12] the target is T2, CCR8. Put plainly: binding to cells expressing CCR8, fluorescence counts (FL1 Counts) against Log M. The source holds these as a separate data set.
Assay [13] has as its target T8, human CCR9A. Put plainly: binding to cells expressing human CCR9A, fluorescence counts (FL1 Counts) against Log M.
In assay [14] the target is T9, human CCR9B. Put plainly: binding to cells expressing human CCR9B, fluorescence counts (FL1 Counts) against Log M.

Residue numbers refer to the chain shown, from its start. Read-outs that look alike come from different tables or passages of the source.

T2 sequence (P51685 whole entry): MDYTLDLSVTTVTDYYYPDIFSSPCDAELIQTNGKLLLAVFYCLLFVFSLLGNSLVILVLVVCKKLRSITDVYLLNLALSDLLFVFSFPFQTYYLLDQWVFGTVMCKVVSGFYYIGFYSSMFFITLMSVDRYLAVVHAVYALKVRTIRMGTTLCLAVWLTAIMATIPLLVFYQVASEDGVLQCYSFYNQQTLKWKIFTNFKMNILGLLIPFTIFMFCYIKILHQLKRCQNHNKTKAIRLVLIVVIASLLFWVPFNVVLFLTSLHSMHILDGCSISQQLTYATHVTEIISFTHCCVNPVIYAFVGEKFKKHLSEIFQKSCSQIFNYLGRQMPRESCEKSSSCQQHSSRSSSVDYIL
T1 sequence (P51681 whole entry): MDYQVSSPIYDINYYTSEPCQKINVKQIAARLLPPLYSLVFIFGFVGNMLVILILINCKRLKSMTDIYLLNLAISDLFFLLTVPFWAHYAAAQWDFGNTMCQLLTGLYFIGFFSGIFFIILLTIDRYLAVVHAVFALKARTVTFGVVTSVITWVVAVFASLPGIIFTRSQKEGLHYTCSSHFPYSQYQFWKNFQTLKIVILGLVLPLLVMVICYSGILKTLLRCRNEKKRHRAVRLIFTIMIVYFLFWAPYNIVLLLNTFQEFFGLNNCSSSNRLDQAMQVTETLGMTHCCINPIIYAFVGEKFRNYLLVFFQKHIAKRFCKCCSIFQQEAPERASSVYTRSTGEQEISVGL

B1: AB1020243 afuc (chimeric parent antibody, afucosylated) (antibody, V domains shown)
VH: EVQLQQSGTVLARPGASVKMSCKASGYTFTSYWMHWVKQRPGQGLEWIGVIYPGNSDTRYNQKFKGKAKLTAVTSATTAYMELSSLTNEDSAVYYCTRDYYSNYVYYYAMDYWGQGTSVTVSS
VL: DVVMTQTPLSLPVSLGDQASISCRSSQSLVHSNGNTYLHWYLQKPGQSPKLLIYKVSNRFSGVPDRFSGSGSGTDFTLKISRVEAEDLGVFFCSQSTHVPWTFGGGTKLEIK
modifications: afucosylated form; in the LigandTracer assay DyLight 650 Maleimide on an engineered cysteine residue in the CH2 region
notes: Mouse variable domains; Called chimeric, with human IgG1 format stated for the LigandTracer assay; also called chimeric AB1020243; parent AB1020243
For the molecule B1, the binding result was “no binding (tested: Log M about -6.5 (about 3e-7 M))” with CCR5 [1], “no binding (tested: Log M about -6.5 (about 3e-7 M))” with CCR8 [2], “no binding (tested: Log M about -6.9 (about 1e-7 M))” in the assay with CXCR1 and “no binding (tested: Log M about -6.9 (about 1e-7 M))” with CXCR2. Moreover, the “EC50 (read off the curve)” value with cynomolgus CCR9 [3] was approximately 600 pM.

B2: AB1020243 (hybridoma mIgG) (antibody, V domains shown)
VH: B1 VH
VL: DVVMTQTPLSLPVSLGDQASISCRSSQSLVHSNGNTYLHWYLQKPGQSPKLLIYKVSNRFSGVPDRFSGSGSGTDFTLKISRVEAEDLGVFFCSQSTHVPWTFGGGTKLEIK
notes: Mouse IgG from the hybridoma; also called clone ZY10O1-A02
Regarding B2, the binding result with rat CCR9 [4] is recorded as “no binding (tested: 10 ug/ml)”; with mouse CCR9 [5], “no binding (tested: 10 ug/ml)”; with human CCR9A [6] it was “binds”; with human CCR9B [7], “binds”.

B3: AB243LO0326 (antibody, V domains shown)
VH: QVQLVQSGAEVKKPGASVKVSCKASGYTFTSYWMHWVRQAPGQGLEWIGVIYPGNSDTRYNQKFKGRVTITRDTSASTAYMELSSLRSEDTAVYYCTRDYYSNYVYYYAMDYWGQGTTVTVSS
VL: DIVMTQTPLSLPVTPGEPASISCRSSQSLVHPNRNTYLHWYLQKPGQSPQLLIYKVSNRFSGVPDRFSGSGSGTDFTLKISRVEAEDVGVYYCSQSTHVPWTFGQGTKLEIK
modifications: afucosylated form; in the LigandTracer assay DyLight 650 Maleimide on an engineered cysteine residue in the CH2 region
notes: Full chains are not tied to the tested lot
On to B3, for which, in the assay with cynomolgus CCR9 [8], the “EC50, killing of cynomolgus CD4+CCR9+ PBMC” value was determined as 30 pM. Further, the binding result was “no binding” in the assay with mouse CCR9 [9]; “no binding” with rat CCR9 [10]; “no binding (tested: Log M about -6.9 (about 1e-7 M))” with CCR5 [11]; “no binding (tested: Log M about -6.9 (about 1e-7 M))” with CCR8 [12]; “no binding (tested: Log M about -6.9 (about 1e-7 M))” with CXCR1; “no binding (tested: Log M about -6.9 (about 1e-7 M))” with CXCR2. The binding result with human CCR9A [13] and with human CCR9B [14] was “binds” each time.

B4: AB243LO0331 (antibody, IgG1, V domains shown)
VH: B3 VH
VL: B3 VL with P32S, R34T
modifications: afucosylated form
Turning to B4, the binding result with mouse CCR9 [9] and in the assay with rat CCR9 [10] was “no binding” each time.

A word on the EC50 (read off the curve): it is the midpoint of the concentration-response curve.

Source of the values: US20250084174A1 (AstraZeneca / MedImmune, published 2025).
